Measured values taken from the DeepSol protein solubility set.

assay: soluble on expression in E. coli; label from the status in PepcDB or PDB records

Sequence	soluble on expression in E. coli
MSLAPSPSSSTAPAALQQLGWQARLRWVHGICQGLPKVAQQLDEFLANQTGVVSTAREMQEWREAWVGFQQHKDAWVQACSQALQQAARKPPSQAGESSASGSAPLNFELLSDDVVENKILASRMALAMGETLQPGFEAMRLRMQALEGHELPSRDMFRAETICLHLVEQWLSCGMERKHLLRAVEPLQNALAPLMESEYGILHKLLDAKGVSKAQDAPLRVKRTEGGPPTGAMPLGGASGFGHAAEPGWSSSAMQQFMSAGMAAGIGTEPGIALPPGASAGLGMLARARHRALDAMNQLRQVLSQPAVGIPGLMPGAPLVPMPPASAALAQALQEQQQLMVAELRAQYPAATGSAMAMPAMDYSPAAIDQLVNQVRERSADWKQKAQTTGEKATIEVVALMFQSILSEDRLPPSIRVWFARLQVPVLRVALAEPQFFSDLNHPARKLIDRMGSCVMGFDASSINGNALETEIRRVVQVIEQYPETGQKVFALVLREFEAFLTKHFAQNRSTAKITSVAQQVEQKETLAIQYTIELRNMLTDMPVREEVRDFLFKSWADVLAMATVRYGAKDARAMRFKQAASELVWSASAKPSRQERARVIQGLPTLLQTLREGLELVSVTGDAQSTAIKVLTDTLAQAFMSKTAAIPAERIEAMAKRLSELEKYISEDGKLDDMPLSSESIELMLGVDAGDLNVIPNTDSPVEPAMLEWARSLESGRWFTLDHNGSRVQVQYVWHSRRRHLHLFASLDGHCYLLQAQRMATYLQAGLLAVHDAEALTVRATRDALQKIQANPEREGHHHHHH	soluble
MSLAQEDLLAKGEYLTRAANCVACHTVPGGQPFAGGVEFKLPFGSLFSPNITPDPQTGIGAWTDDEFVSALQTGIGRDGKHYYPAFPYTSYSKMSRDDILAIKGYLDSLQPVEQAPRENHIGFPFNQRWGMVFWNLLFLNDEPFQADSQRSAEWNRGKYLVEGPGHCGECHSPRNLFQAVSSERSLAGNLIQGWNAYNISADPVHGIGAWPTDVLAGYLKDGAAPGLGLSSGPMAEVVENSLRHLTDADRQAIAVFLKDSPPRSEGVPRPQQVTLAEPGSGSALGNKLFAEACASCHRWDGTGNQSQTAMLLGLKTVNDPAASNLLGILLSGHGAADAPVNRRMPSFGNIYTDQELAALSSFMLQRFGESGAQVSVPAVAKRRTESLHEGHHHHHH	not soluble
MSLAQKVKLSTIAETLGLSTATVSLALRDSPLVAAVTRDKIKEQARALGYIYNRRAASLRTSRSGIIGVVVHDIMNPFYGEILKAIEAELDRDKQTFILSNHYDSVEKQRDFIETLLQLGGDGVIMSPAIGTPPQDIQLAEDNGMPAILIARSIEGLDVPIFRGDDAYGISLATNHLIGLGHRCIAMVGGTDQTSTGRDRYQGYVNALRKANIEVDPDLRIPGPRSKQGGFEAAVHLLSLPQKPTAVVCWNDLVAIGMMNGIARAGLVPGVDISVTGYDDLEEASIATPALTTVWNGQAEVGRSAARALLDKLSGSHEPDGIHLIKPEMRIRQSTGPLRVTEGHHHHHH	soluble
MSLAQSVAGSSVLTPGLTVSGPHSHARHSATLPSAMTAFPAAPDLAPPSRAAQGERVLCAMSGGVDSSVTASLLKEQGYQVIGAMMRFWPDDKRTDTFDSCCSPDAAYEARRVAEQVGVPFYLLDYREPFQRHIVGPFLEEYARGRTPNPCVNCNTKVKFDELVKKAKMLGCRYVATGHYVKRVDNAQGEVEFHRGDDPRKDQTYFLWGTPRDALPYILFPVGELEKPQVREIAAERGLLTAQKPESQNICFVPGKVQDFVAEHLPQAQGYIREIATGEVVGEHLGTQFYTLGQKKGLGLYQSHRVRHVVHLDPDSNTVWVGDYDDCLWTGLKATDANYLLDLAELPTELEVQVRYRTAPVKAHVLHADAEGFELEFAEPQFAVAPGQSAVLYAGSRLLGGGLIADHARELPALTEGHHHHHH	soluble
MSLARPDELMFAPLGGVGEIGMNLSIYGLGNRHQRSWLAVDLGVSFGDEEHLPGIDLIMPDVRFLEKERKNLVGLVLTHAHEDHFGAIIELWPRLKCPIYATKFSAALFEAKCAAERNPPDIPVTVVPSGDRIDLGPFGVEFVPVAHSIPESHALAIHTAAGIVVHTGDWKIDPTPIVGPPTDERRLRELGDEGVLALIGDSTNAVRDGRSPSETEVAKTIAELVKAARGRVAVTTFASNVGRLRAVADAARAAGREVVVVGRAMERVVQVARETGHLDGMQELRSADVYGHLPSDKVLALCTGSQGEPRAALARIAKDDHPQVTLNRGDTVIFSSRTIPGNERAVGAIINGLVTQGIKVITDRTELVHVSGHPRRDELRDMIAWVRPQLLIPVHGEALHLSEHAQLARAAGVPKVLICKNGDLVRLGPEGHHHHHH	soluble
MSLARSMTTGRSGTIGVVVGDIENPFFSLAVRGITDVARQAGFTVILINSGEDAAAEKAAIRTLLAKRVDGLIVSPAKENDVEHLHEVIRSGLPLALLDRGSDTLEVDTVLADDRYTAENVTSRLIALGHRRIAYLTACDTPDHRFRTPQDISTGSVRRRIEGYLAVCREAGFIGMEDWVKVGAVTPERTHRIVIETLQSGHRPTAIIASDSIIGLEVFKAHRELGLNIPGDLSLVSFHDADWTSVTTPPVTVVRQPVYELGATAARLLVERLNGEDRAARKVVLKNEVVERASTRAIEGHHHHHH	soluble
MSLARSRARVETIAELERTNAALQQALDENAALHAQLLVQAREAGVADERRRLAAEIHDTLAQGLTGIIAQLQVVAAAPDPALGREHLDRALALARHSLGEARRSVHNLSPVALAEDGLPDALKKTVTEWGARTGVQARFTVTGTAEHLHDEVAATLLRIAQEALSNTARHAAADRVGVTLSYMGDEVTLDIRDDGRGFDPLTARECGPGGGFGLDGMRARAERIAGSLTVEAEPGHGTAVSARVPLVRHDREGHHHHHH	soluble
MSLARTEKIYIYGASGHGLVCEDVAKNMGYKECIFLDDFKGMKFESTLPKYDFFIAIGNNEIRKKIYQKISENGFKIVNLIHKSALISPSAIVEENAGILIMPYVVINAKAKIEKGVILNTSSVIEHECVIGEFSHVSVGAKCAGNVKIGKNCFLGINSCVLPNLSLADDSILGGGATLVKNQDEKGVFVGVPAKRMEGGSHHHHHH	soluble
MSLARVELHVHLDGAVGVEELYNISVKRRLQLPGGVKSAAELQAYIIRISPAWHRFDVVNDIIGGDEAVIRDVAEGFVGRQARAGIVYTEVRYDPERLSRSGLANVSISRQAAVRAVRDGLRVGAEKHGVVAYQILCAMRGKSAEQCMATATLAAQMRSTSMGGVVGLDLAGDEVTYRNAPYVGCLRYAKRDLRLNITVHSGEFTETPADEVRSAVVDMGADRVGHGYAAVRNAATLSLVKERLIHVEACPRSAQLHGDLDALDEYRRAQLNFGLNTDDPSVFFGNGTIALDEAIVQDVLHYSVDEVRNAYANALSAAFGPTSAIPGLLRGSAPIVVEGHHHHHH	soluble
MSLASFPHRNLTWNDINFVHTTDTHGWYSGHINQPLYHANWGDFISFTTHMRRIAHSRNQDLLLIDSGDRHDGNGLSDITSPNGLKSTPIFIKQDYDLLTIGNHELYLWENSKQEYETVVNHFQDKYVCSNVDIRLDNGLFVPLGLKYKYFTTPIRGIRVMAFGFLFDFKRFNSGTRVTPMAETIHEPWFQEALKHEVDLIIIVGHTPISHNWGEFYQVHQYLRQFFPDTIIQYFGGHSHIRDFTVFDSLSTGLQSGRYCETVGWTSVNLDKADLNLPVRQRFSRSYIDEGHHHHHH	not soluble
